Data published in patent US20030199671A1 (published 2003).
Positions of bridges follow the written chain, without caps; N, C: chain ends.

Legend:
human IgG4 [1] = target: T1, human IgG4 (human, UniProt P01861-1 1-327 = IgG part); test: fluorescence anisotropy; pH 7.4 PBS
T1 construct: Calbiochem; plasma IgG4 in anisotropy studies, myeloma-derived (cat. 400126) in batch/column studies; also called hIgG4
Experimental: (§1) All measurements were performed in 384 well microplates with 20 nM fluorescein-labeled peptide and various concentrations of the IgG isoform in a volume of between 10 and 20 μl using a Tecan Polarion fluorescence polarization plate reader. All binding buffers included 0.01% (v/v) Tween 20 to prevent peptide adsorption to the microplate. The binding mixture was equilibrated for 10 minutes in the microplate at 30° C. prior to performing the measurement.

human IgG1 [2] = target: T2, human IgG1 (human, UniProt P01857-1 1-330 = IgG part); test: fluorescence anisotropy; pH 7.4 PBS
T2 construct: Calbiochem; human plasma IgG1 in anisotropy studies, myeloma-derived (cat. 400120) in batch/column studies; also called hIgG1
Experimental: as §1

human IgG2 [3] = target: T3, human IgG2 (human, UniProt P01859-1 1-326 = IgG part); test: fluorescence anisotropy; pH 7.4 PBS
T3 construct: Calbiochem; plasma IgG2 in anisotropy studies, myeloma-derived (cat. 400122) in batch/column studies; also called hIgG2
Experimental: as §1

human IgG1 [4] = target: T2, human IgG1; test: fluorescence anisotropy; pH 5.7, 0.15 M NaCl
Experimental: as §1

human IgG1 [5] = target: T2, human IgG1; test: fluorescence anisotropy; pH 5.7, 0.05 M NaCl
Experimental: as §1

human IgG1 [6] = target: T2, human IgG1; test: fluorescence anisotropy; pH 5.7, 0.15 M NaCl; remark: listed apart in the source
Experimental: as §1

human IgG4 [7] = target: T1, human IgG4; test: mini-column chromatography, immobilised ligand
Experimental: (§2) Thus, 250 μg of target (hIgG1, hIgG2, hIgG3, hIgG4, goat IgG and bovine IgG) at 0.250 mg/ml in PBST, pH 7.2 or TBST, pH 7.3 was loaded onto a 350 μl column (3×50 mm) run at 0.200 ml/min. flowrate (170 cm/hr). Flowthrough, elution and cleaning fractions were collected and assayed for total protein recovery by size-exclusion HPLC.

human IgG1 [8] = target: T2, human IgG1; test: mini-column chromatography, immobilised ligand
Experimental: as §2

human IgG2 [9] = target: T3, human IgG2; test: mini-column chromatography, immobilised ligand
Experimental: as §2

human IgG1 [10] = target: T2, human IgG1; test: fluorescence anisotropy; pH 5.7, 0.1 M NaCl
Experimental: as §1

human IgG4 [11] = target: T1, human IgG4; test: batch binding, immobilised ligand
Experimental: (§3) IgG targets were diluted into 10 mM phosphate buffer containing 150 mM NaCl and 0.01% Tween 20, pH 7.2 (PBST) or 50 mM Tris buffer containing, 150 mM NaCl and 0.01% Tween-20, pH 7.5 (TBST). Batch (static) binding and elution studies were conducted in a 96-well assay filterplate (Millipore MultiScreen-HV, with 0.45 μm Durapore membrane, product no. MAHVN4510). The target was allowed to incubate with the resin for 1-1.5 hours with shaking at room temperature. Unbound target was collected by centrifugation of samples from the assay plate directly into a low-UV absorbing 96-well collection plate (Costar, product no. 3635 or Greiner, product no. 655801). The unbound target was then quantitated by reading the absorbance at 280 nm (normalized to 1 cm pathlength, 1.4 mg/ml A280 extinction coefficient) of the collection plate on a microplate spectrophotometer (Molecular Devices Corp., SPECTRAmax PLUS) against a buffer blank.
(§4) The percentage bound target was determined by subtracting the mass determined as unbound from the corresponding condition's control values (control non-filtered added directly to the collection plate and/or the negative control). The assay plate was washed (3×) with 200 μl of binding buffer by vacuum filtration followed by addition of 100 μl of various elution conditions (e.g.: 0.1 M sodium bicarbonate buffer, pH 8.5 and/or 0.1 M sodium citrate buffer, pH 4.0). After a 30-60 minute incubation with shaking at room temperature, the eluted target was collected by centrifugation of the assay plate into another collection plate and quantitated in a similar manner. Percent elution of total load was then determined to characterize elution recovery efficiency under various conditions.

human IgG1 [12] = target: T2, human IgG1; test: batch binding, immobilised ligand
Experimental: as §3, §4

human IgG2 [13] = target: T3, human IgG2; test: batch binding, immobilised ligand
Experimental: as §3, §4

human IgG3 = target: T4, human IgG3 (human, UniProt P01860-1 1-377); test: batch binding, immobilised ligand
T4 construct: Calbiochem; plasma IgG3 in anisotropy studies, myeloma-derived (cat. 400124) in batch/column studies; also called hIgG3
Experimental: as §3, §4

human IgG1 [14] = target: T2, human IgG1; test: fluorescence anisotropy; pH 5.7, 15% ethylene glycol
Experimental: as §1

human IgG4 [15] = target: T1, human IgG4; test: fluorescence anisotropy; pH 7.4, 0.01 M Tris-HCl
Experimental: as §1

human IgG1 [16] = target: T2, human IgG1; test: fluorescence anisotropy; pH 7.4, 0.01 M Tris-HCl
Experimental: as §1

human IgG2 [17] = target: T3, human IgG2; test: fluorescence anisotropy; pH 7.4, 0.01 M Tris-HCl
Experimental: as §1

human IgG1 [18] = target: T2, human IgG1; test: fluorescence anisotropy; pH 5.7, 0 M NaCl
Experimental: as §1

human IgG1 [19] = target: T2, human IgG1; test: fluorescence anisotropy; pH 7.4 PBS (second value, unlabelled row)
Experimental: as §1

T1 sequence (P01861 other isoform, or with tags, fused parts or gaps): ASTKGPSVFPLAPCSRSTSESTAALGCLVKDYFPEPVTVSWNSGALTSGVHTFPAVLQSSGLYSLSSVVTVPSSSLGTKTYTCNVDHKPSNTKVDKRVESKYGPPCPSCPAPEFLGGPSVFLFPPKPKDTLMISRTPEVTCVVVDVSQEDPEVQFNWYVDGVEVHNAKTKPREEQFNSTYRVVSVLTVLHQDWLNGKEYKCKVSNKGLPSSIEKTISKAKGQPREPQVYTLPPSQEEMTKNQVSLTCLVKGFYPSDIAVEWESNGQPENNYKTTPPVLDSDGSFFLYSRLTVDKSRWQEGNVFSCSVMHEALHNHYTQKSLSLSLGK
T3 sequence (P01859 other isoform, or with tags, fused parts or gaps): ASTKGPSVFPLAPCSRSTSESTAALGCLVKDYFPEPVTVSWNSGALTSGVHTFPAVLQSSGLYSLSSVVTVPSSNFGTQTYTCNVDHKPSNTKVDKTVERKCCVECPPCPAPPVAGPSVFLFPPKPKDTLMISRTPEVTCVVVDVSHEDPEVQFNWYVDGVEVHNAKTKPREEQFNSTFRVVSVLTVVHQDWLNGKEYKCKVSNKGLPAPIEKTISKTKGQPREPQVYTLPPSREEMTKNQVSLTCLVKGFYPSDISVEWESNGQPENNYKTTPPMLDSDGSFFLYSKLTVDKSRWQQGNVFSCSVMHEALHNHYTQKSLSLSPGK
T2 sequence (P01857 other isoform, or with tags, fused parts or gaps): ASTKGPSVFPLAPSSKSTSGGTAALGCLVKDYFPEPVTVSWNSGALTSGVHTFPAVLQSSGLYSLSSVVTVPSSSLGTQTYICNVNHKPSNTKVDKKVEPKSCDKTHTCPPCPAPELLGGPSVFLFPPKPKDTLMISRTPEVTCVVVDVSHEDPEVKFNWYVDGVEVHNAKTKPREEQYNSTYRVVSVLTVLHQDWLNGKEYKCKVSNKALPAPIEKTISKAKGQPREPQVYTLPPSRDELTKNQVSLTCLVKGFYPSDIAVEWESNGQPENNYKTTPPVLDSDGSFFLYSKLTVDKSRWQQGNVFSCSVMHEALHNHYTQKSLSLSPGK
T4 sequence (P01860 other isoform, or with tags, fused parts or gaps): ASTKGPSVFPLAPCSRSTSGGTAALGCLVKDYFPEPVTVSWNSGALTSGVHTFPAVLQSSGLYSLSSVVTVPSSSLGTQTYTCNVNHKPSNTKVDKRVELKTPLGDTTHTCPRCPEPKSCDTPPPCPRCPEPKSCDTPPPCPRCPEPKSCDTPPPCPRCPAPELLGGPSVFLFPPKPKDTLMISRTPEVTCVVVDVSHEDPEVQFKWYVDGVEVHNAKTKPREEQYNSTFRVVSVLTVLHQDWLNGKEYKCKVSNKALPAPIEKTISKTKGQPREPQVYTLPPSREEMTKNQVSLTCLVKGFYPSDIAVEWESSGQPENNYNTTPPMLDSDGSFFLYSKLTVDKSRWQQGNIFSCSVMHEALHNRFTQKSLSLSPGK

Ac-GDDHMCVYTTWGELIWCDNHEPGPEGGGK-NH2 (disulfide 6-17 (inferred), Synthetic disulfide-cyclised peptide) [DX249]
Kd (human IgG4 [1]): 1900 nM | Kd (human IgG1 [2]): 1400 nM | Kd (human IgG2 [3]): 1100 nM | Kd (human IgG1 [4]): 840 nM | Kd (human IgG1 [5]): 300 nM | Kd (human IgG1 [6]): 840 nM | binding efficiency (human IgG4 [7]): > 90% | binding efficiency (human IgG1 [8]): > 90% | binding efficiency (human IgG2 [9]): > 90% | Kd (human IgG1 [10]): 970 nM | Bound (% of Total Load) (human IgG4 [11]): 61% | bdg % (of Total Load) (human IgG4 [11]): 82% | Bound (% of Total Load) (human IgG1 [12]): 88% | bdg % (of Total Load) (human IgG1 [12]): 91% | Bound (% of Total Load) (human IgG2 [13]): 78% | bdg % (of Total Load) (human IgG2 [13]): 92% | Bound (% of Total Load) (human IgG3): 0% | bdg % (of Total Load) (human IgG3): 3% | Kd (human IgG1 [14]): 80 nM | Kd (human IgG4 [15]): 1900 nM | Kd (human IgG1 [16]): 400 nM | Kd (human IgG2 [17]): 1800 nM | Kd (human IgG1 [18]): 74 nM | Kd (human IgG1 [19]): 2900 nM
